The text below walks through data of article PMC3433420, “Comprehensive Binary Interaction Mapping of SH2 Domains via Fluorescence Polarization Reveals Novel Functional Diversification of ErbB Receptors” (PLoS ONE, 2012).

Where “and” joins values, the source holds several entries; their conditions need not be identical. Equal entries are not always repeated. Non-standard residues stand in square brackets, D forms with d. No end group written: not given here. pY = N[C@@H](Cc1ccc(OP(=O)(O)O)cc1)C(=O)O; Rhodamine = not defined here

Common to all, as to test: peptide or protein array; SH2/PTB proteins spotted on aldehyde slides, rhodamine peptide titrated in buffer B (20 mM HEPES, 100 mM KCl, 0.1% Tween-20, 5 mM DTT, pH 7.8), 1 h at room temperature; replicate assays
Conditions in all cases: both partners purified

The target of one assay is T1, FGR SH2 domain (human, UniProt P09769 144-241).
T1 construct: FGR, human; source: bacterial expression, purified

Another assay deals with T2, GRB7 SH2 domain (human, UniProt Q14451 431-527).
T2 construct: GRB7, human; source: bacterial expression, purified

The target in another assay is T3, MATK SH2 domain (human, UniProt P42679 122-211).
T3 construct: MATK, human; source: bacterial expression, purified
T3 sequence (looked up): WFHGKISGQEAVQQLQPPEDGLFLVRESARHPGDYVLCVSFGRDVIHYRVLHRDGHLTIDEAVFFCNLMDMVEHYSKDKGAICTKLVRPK

The target in assay [1] is T4, PIK3R1 tandem SH2 domains (human, UniProt P27986 1-724).
T4 construct: PIK3R1, human; also called PIK3R1-NC; source: bacterial expression, purified

Assay [2] has as its target T5, PLCG2 N-terminal SH2 domain (human).
T5 construct: PLCG2, human; source: bacterial expression, purified
T5 sequence (P16885 whole entry, looked up): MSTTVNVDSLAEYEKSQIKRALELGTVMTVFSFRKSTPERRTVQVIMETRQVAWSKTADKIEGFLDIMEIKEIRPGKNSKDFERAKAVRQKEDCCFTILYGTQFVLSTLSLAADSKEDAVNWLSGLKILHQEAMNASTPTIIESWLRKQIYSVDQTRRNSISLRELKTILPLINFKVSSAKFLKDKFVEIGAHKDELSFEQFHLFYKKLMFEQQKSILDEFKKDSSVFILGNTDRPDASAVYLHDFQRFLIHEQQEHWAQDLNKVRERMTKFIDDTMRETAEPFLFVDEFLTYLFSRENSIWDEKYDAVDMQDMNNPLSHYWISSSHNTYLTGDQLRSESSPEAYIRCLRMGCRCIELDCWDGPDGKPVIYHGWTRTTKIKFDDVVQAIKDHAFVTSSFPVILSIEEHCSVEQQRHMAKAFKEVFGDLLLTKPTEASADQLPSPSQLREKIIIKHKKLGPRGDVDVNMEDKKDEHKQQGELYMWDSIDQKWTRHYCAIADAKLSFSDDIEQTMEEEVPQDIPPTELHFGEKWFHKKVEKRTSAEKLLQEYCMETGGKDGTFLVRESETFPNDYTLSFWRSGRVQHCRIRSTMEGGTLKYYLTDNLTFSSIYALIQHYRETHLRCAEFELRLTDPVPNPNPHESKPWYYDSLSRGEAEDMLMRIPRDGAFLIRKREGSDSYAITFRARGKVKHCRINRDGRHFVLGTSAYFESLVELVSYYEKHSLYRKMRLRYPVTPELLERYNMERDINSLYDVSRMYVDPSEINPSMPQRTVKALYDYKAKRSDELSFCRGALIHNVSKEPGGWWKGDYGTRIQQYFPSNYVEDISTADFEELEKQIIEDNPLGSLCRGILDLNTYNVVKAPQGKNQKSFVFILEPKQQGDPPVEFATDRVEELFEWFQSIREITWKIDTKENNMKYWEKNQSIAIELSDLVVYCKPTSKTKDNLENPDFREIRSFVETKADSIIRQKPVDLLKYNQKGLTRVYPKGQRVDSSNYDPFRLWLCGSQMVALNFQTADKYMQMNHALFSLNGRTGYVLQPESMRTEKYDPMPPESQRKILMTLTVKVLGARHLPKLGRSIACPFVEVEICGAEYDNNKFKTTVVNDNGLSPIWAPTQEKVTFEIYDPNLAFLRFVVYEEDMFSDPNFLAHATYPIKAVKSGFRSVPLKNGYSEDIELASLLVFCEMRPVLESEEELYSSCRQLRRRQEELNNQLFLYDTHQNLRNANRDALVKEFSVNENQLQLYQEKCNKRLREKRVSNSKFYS

In the next assay the target is T6, SH2B3 SH2 domain (human, UniProt Q9UQQ2 364-462).
T6 construct: SH2B3, human; source: bacterial expression, purified

The next assay addresses T7, BTK SH2 domain (human, UniProt Q06187 281-377).
T7 construct: BTK, human; source: bacterial expression, purified

Another assay has as its target T8, SHC1 domain construct (human).
T8 chain: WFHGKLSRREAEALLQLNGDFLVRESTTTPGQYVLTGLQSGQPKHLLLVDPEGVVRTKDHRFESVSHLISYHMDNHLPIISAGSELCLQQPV

T7 sequence (Q06187 281-377): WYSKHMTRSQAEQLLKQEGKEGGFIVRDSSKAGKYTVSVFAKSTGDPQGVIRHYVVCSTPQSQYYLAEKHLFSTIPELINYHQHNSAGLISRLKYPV
T2 sequence (Q14451 431-527): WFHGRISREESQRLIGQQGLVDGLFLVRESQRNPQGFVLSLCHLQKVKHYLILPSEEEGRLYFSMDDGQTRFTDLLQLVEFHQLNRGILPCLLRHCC
T6 sequence (Q9UQQ2 364-462): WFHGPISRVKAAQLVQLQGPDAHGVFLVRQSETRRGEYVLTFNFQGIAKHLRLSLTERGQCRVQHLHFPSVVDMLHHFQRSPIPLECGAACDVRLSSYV
T4 sequence (P27986 whole entry, the tested form may be a part): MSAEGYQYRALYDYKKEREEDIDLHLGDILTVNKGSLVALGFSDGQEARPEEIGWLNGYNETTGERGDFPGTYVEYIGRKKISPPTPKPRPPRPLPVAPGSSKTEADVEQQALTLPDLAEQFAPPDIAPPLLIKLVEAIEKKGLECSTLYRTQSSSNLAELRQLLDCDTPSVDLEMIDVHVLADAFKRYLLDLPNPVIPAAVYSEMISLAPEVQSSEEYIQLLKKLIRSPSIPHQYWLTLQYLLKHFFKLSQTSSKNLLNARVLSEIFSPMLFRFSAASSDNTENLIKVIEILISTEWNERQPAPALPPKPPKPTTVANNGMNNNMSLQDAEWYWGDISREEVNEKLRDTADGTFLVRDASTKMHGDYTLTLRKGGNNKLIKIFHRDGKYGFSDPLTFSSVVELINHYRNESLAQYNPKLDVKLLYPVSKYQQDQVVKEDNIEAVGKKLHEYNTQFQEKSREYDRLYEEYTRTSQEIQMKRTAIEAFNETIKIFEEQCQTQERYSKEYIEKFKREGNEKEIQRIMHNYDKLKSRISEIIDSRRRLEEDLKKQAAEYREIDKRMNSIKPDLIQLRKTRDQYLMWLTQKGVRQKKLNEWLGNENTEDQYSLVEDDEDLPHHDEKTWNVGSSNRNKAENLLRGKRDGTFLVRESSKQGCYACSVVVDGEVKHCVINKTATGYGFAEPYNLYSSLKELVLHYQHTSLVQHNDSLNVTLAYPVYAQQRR

Turning to Rhodamine-ETDG[pY]VAPLTCSD (reading uncertain) [ErbB2 pY1127 phosphopeptide, rhodamine-labelled, for protein microarrays], the Kd is 5180 nM with FGR SH2 domain; 1600 nM and 2530 nM with GRB7 SH2 domain; 4400 nM in the assay with MATK SH2 domain; 10.9 nM and 10 nM in assay [1]; 4160 nM in assay [2]; 1380 nM and 2300 nM with SH2B3 SH2 domain. Also, the Kd was 4710 nM and 5890 nM in the assay with BTK SH2 domain; 820 nM and 978 nM with SHC1 domain construct.

The term Kd denotes the concentration at which binding is half-saturated.
